Experimental data: patent US20210393711A1 (YISSUM RESEARCH DEVELOPMENT COMPANY OF THE HEBREW …, published 2021)

Biological target: T1, mouse Toll-like receptor 2 (mouse, UniProt Q9QUN7 25-784)
T1 construct: whole, on cells; also called murine TLR2; TLR2
Test: anti-His whole-mount immunofluorescence of mouse maxillary gingival tissue (oral tissue that expresses TLR2) 24 h after oral lavage with scaTLR2-secreting Lactobacillus
Procedure: The ability of Lactobacillus transformants to secrete functional single chain antibody (scAb) in the oral cavity, and the ability of the scAb to bind to oral tissue that express TLR2 was next assessed. Mice were administered by one oral lavage the following Lactobacillus transformants: EV (empty vector transformed, negative control), scahTLR4 (single chain antibody against human TLR4, negative control), and scaTLR2 (single chain antibody against TLR2). After 24 h the mice were sacrificed, Lactobacillus persistence was assessed by culturing viable bacteria and enumerating CFU, and the maxillary gingival tissues were processed for whole mounting and stained with an antibody to the His-tag present in the single chain antibodies Similar Lactobacillus CFU were recovered in all three groups. […] In the control groups there was no detection of His-positive staining (FIG. 7A-B). Therefore, scaTLR2 is secreted by the transformed Lactobacilli in vivo, and avidly binds to oral mucosal tissue.

T1 sequence (Q9QUN7 25-784): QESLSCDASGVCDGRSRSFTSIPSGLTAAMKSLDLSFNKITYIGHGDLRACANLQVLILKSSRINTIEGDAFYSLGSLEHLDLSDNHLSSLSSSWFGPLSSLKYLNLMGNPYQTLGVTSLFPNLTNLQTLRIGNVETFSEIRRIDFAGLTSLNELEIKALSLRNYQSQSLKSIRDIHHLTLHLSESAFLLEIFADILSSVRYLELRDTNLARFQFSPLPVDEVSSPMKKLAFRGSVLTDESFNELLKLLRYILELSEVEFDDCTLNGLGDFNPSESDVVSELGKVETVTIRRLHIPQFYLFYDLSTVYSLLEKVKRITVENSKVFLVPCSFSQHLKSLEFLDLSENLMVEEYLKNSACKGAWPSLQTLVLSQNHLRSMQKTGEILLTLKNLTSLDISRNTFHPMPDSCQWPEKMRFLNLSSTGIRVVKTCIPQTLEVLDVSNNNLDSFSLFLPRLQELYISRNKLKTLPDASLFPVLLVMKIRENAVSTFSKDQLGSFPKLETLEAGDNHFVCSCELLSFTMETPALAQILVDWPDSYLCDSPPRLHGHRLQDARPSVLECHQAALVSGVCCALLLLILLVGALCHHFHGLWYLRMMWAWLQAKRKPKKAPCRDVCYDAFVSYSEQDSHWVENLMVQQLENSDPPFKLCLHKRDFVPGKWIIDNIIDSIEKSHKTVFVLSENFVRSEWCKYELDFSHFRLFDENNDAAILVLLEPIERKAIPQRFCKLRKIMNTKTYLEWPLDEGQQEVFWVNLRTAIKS

- binding result: binds
B1: anti-TLR2 single chain antibody (scAb) secreted by transformed Lactobacillus, built from the variable regions of mAb T2.5 (scFv)
scFv: QVQLQQSGPELVNPGASVKLSCKASGFTFTTYGINWVKQGPGQGLEWIGWIYPRDGSTNFNENFKDKAALTVDTSSSTAYMELHSLTSEDSAVYFCARLTGGTFLDYWGQGTTVTVSSGGGGSGGGGSGGGGSDIELTQSPASLAVSLGQRATISCRASESVEYYGTSLMQWYQQKPGQPPKLLIFGASNVESGVPVRFSGSGSGTDFSLNIHPVEEDDIVMYFCQQSRKLPWTFGGGTKLEIKR
notes: also called scaTLR2; anti-TLR2 scAb
